{"source": "FireProtDB (doi:10.1021/bi000415x)", "parents": {"B1": {"name": "Protein P-30, P22069 (parent)", "chain": "QDWLTFQKKHITNTRDVDCDNIMSTNLFHCKDKNTFIYSRPEPVKAICKGIIASKNVLTTSEFYLSDCNVTSRPCKYKLKKSTNKFCVTCENQAPVHFVGVGSC"}}, "data": [{"variants_of": "B1", "conditions": "Lithobates pipiens; pH 2; 25 °C; Thermal; DSC; MES 100 mM; reversible: yes; structure 1ONC; whole UniProt chain shown", "units": {"ddG of mutation (higher = less stable)": "kcal/mol", "unfolding free energy": "kcal/mol"}, "values": [{"variant": "QDWLTFQKKHITNTRDVDCDNILSTNLFHCKDKNTFIYSRPEPVKAICKGIIASKNVLTTSEFYLSDCNVTSRPCKYKLKKSTNKFCVTCENQAPVHFVGVGSC", "ddG of mutation (higher = less stable)": 2.51, "unfolding free energy": 6.33}]}, {"variants_of": "B1", "conditions": "Lithobates pipiens; pH 2; Thermal; DSC; MES 100 mM; reversible: yes; structure 1ONC; whole UniProt chain shown", "units": {"Tm": "°C", "change of melting temperature, mutant - wild type (higher = more stable)": "°C", "heat capacity change of unfolding": "kcal/mol/K", "unfolding enthalpy (calorimetric)": "kcal/mol", "unfolding enthalpy (van 't Hoff)": "kcal/mol"}, "values": [{"variant": "QDWLTFQKKHITNTRDVDCDNILSTNLFHCKDKNTFIYSRPEPVKAICKGIIASKNVLTTSEFYLSDCNVTSRPCKYKLKKSTNKFCVTCENQAPVHFVGVGSC", "Tm": 62.2, "change of melting temperature, mutant - wild type (higher = more stable)": -7.3, "heat capacity change of unfolding": 1.24, "unfolding enthalpy (calorimetric)": 84.8, "unfolding enthalpy (van 't Hoff)": 88.4}]}, {"variants_of": "B1", "conditions": "Lithobates pipiens; pH 2.5; 25 °C; Thermal; DSC; MES 100 mM; reversible: yes; structure 1ONC; whole UniProt chain shown", "units": {"ddG of mutation (higher = less stable)": "kcal/mol", "unfolding free energy": "kcal/mol"}, "values": [{"variant": "QDWLTFQKKHITNTRDVDCDNILSTNLFHCKDKNTFIYSRPEPVKAICKGIIASKNVLTTSEFYLSDCNVTSRPCKYKLKKSTNKFCVTCENQAPVHFVGVGSC", "ddG of mutation (higher = less stable)": 2.29, "unfolding free energy": 7.24}]}, {"variants_of": "B1", "conditions": "Lithobates pipiens; pH 2.5; Thermal; DSC; MES 100 mM; reversible: yes; structure 1ONC; whole UniProt chain shown", "units": {"Tm": "°C", "change of melting temperature, mutant - wild type (higher = more stable)": "°C", "heat capacity change of unfolding": "kcal/mol/K", "unfolding enthalpy (calorimetric)": "kcal/mol", "unfolding enthalpy (van 't Hoff)": "kcal/mol"}, "values": [{"variant": "QDWLTFQKKHITNTRDVDCDNILSTNLFHCKDKNTFIYSRPEPVKAICKGIIASKNVLTTSEFYLSDCNVTSRPCKYKLKKSTNKFCVTCENQAPVHFVGVGSC", "Tm": 65.8, "change of melting temperature, mutant - wild type (higher = more stable)": -6.8, "heat capacity change of unfolding": 1.51, "unfolding enthalpy (calorimetric)": 90.8, "unfolding enthalpy (van 't Hoff)": 87.3}]}, {"variants_of": "B1", "conditions": "Lithobates pipiens; pH 3; 25 °C; Thermal; DSC; MES 100 mM; reversible: yes; structure 1ONC; whole UniProt chain shown", "units": {"ddG of mutation (higher = less stable)": "kcal/mol", "unfolding free energy": "kcal/mol"}, "values": [{"variant": "QDWLTFQKKHITNTRDVDCDNILSTNLFHCKDKNTFIYSRPEPVKAICKGIIASKNVLTTSEFYLSDCNVTSRPCKYKLKKSTNKFCVTCENQAPVHFVGVGSC", "ddG of mutation (higher = less stable)": 2.77, "unfolding free energy": 8.03}]}, {"variants_of": "B1", "conditions": "Lithobates pipiens; pH 3; Thermal; DSC; MES 100 mM; reversible: yes; structure 1ONC; whole UniProt chain shown", "units": {"Tm": "°C", "change of melting temperature, mutant - wild type (higher = more stable)": "°C", "heat capacity change of unfolding": "kcal/mol/K", "unfolding enthalpy (calorimetric)": "kcal/mol", "unfolding enthalpy (van 't Hoff)": "kcal/mol"}, "values": [{"variant": "QDWLTFQKKHITNTRDVDCDNILSTNLFHCKDKNTFIYSRPEPVKAICKGIIASKNVLTTSEFYLSDCNVTSRPCKYKLKKSTNKFCVTCENQAPVHFVGVGSC", "Tm": 68.9, "change of melting temperature, mutant - wild type (higher = more stable)": -7.6, "heat capacity change of unfolding": 1.39, "unfolding enthalpy (calorimetric)": 95.6, "unfolding enthalpy (van 't Hoff)": 94.7}]}, {"variants_of": "B1", "conditions": "Lithobates pipiens; pH 3.5; 25 °C; Thermal; DSC; MES 100 mM; reversible: yes; structure 1ONC; whole UniProt chain shown", "units": {"ddG of mutation (higher = less stable)": "kcal/mol", "unfolding free energy": "kcal/mol"}, "values": [{"variant": "QDWLTFQKKHITNTRDVDCDNILSTNLFHCKDKNTFIYSRPEPVKAICKGIIASKNVLTTSEFYLSDCNVTSRPCKYKLKKSTNKFCVTCENQAPVHFVGVGSC", "ddG of mutation (higher = less stable)": 2.89, "unfolding free energy": 9.32}]}, {"variants_of": "B1", "conditions": "Lithobates pipiens; pH 3.5; Thermal; DSC; MES 100 mM; reversible: yes; structure 1ONC; whole UniProt chain shown", "units": {"Tm": "°C", "change of melting temperature, mutant - wild type (higher = more stable)": "°C", "heat capacity change of unfolding": "kcal/mol/K", "unfolding enthalpy (calorimetric)": "kcal/mol", "unfolding enthalpy (van 't Hoff)": "kcal/mol"}, "values": [{"variant": "QDWLTFQKKHITNTRDVDCDNILSTNLFHCKDKNTFIYSRPEPVKAICKGIIASKNVLTTSEFYLSDCNVTSRPCKYKLKKSTNKFCVTCENQAPVHFVGVGSC", "Tm": 74.7, "change of melting temperature, mutant - wild type (higher = more stable)": -6.9, "heat capacity change of unfolding": 1.48, "unfolding enthalpy (calorimetric)": 103, "unfolding enthalpy (van 't Hoff)": 99.8}]}, {"variants_of": "B1", "conditions": "Lithobates pipiens; pH 4; Thermal; DSC; MES 100 mM; reversible: yes; structure 1ONC; whole UniProt chain shown", "units": {"Tm": "°C", "change of melting temperature, mutant - wild type (higher = more stable)": "°C", "heat capacity change of unfolding": "kcal/mol/K", "unfolding enthalpy (calorimetric)": "kcal/mol", "unfolding enthalpy (van 't Hoff)": "kcal/mol"}, "values": [{"variant": "QDWLTFQKKHITNTRDVDCDNILSTNLFHCKDKNTFIYSRPEPVKAICKGIIASKNVLTTSEFYLSDCNVTSRPCKYKLKKSTNKFCVTCENQAPVHFVGVGSC", "Tm": 80.7, "change of melting temperature, mutant - wild type (higher = more stable)": -6.1, "heat capacity change of unfolding": 1.34, "unfolding enthalpy (calorimetric)": 112, "unfolding enthalpy (van 't Hoff)": 115}]}, {"variants_of": "B1", "conditions": "Lithobates pipiens; pH 5; 25 °C; Thermal; DSC; MES 100 mM; reversible: yes; structure 1ONC; whole UniProt chain shown", "units": {"ddG of mutation (higher = less stable)": "kcal/mol", "unfolding free energy": "kcal/mol"}, "values": [{"variant": "QDWLTFQKKHITNTRDVDCDNILSTNLFHCKDKNTFIYSRPEPVKAICKGIIASKNVLTTSEFYLSDCNVTSRPCKYKLKKSTNKFCVTCENQAPVHFVGVGSC", "ddG of mutation (higher = less stable)": 2.65, "unfolding free energy": 11.5}]}, {"variants_of": "B1", "conditions": "Lithobates pipiens; pH 5; Thermal; DSC; MES 100 mM; reversible: yes; structure 1ONC; whole UniProt chain shown", "units": {"Tm": "°C", "change of melting temperature, mutant - wild type (higher = more stable)": "°C", "heat capacity change of unfolding": "kcal/mol/K", "unfolding enthalpy (calorimetric)": "kcal/mol", "unfolding enthalpy (van 't Hoff)": "kcal/mol"}, "values": [{"variant": "QDWLTFQKKHITNTRDVDCDNILSTNLFHCKDKNTFIYSRPEPVKAICKGIIASKNVLTTSEFYLSDCNVTSRPCKYKLKKSTNKFCVTCENQAPVHFVGVGSC", "Tm": 82.3, "change of melting temperature, mutant - wild type (higher = more stable)": -6, "heat capacity change of unfolding": 1.43, "unfolding enthalpy (calorimetric)": 115, "unfolding enthalpy (van 't Hoff)": 117}]}, {"variants_of": "B1", "conditions": "Lithobates pipiens; pH 6; 25 °C; GdnHCl; CD; MES 100 mM; reversible: yes; structure 1ONC; whole UniProt chain shown", "units": {"ddG of mutation (higher = less stable)": "kcal/mol", "denaturant m value": "kcal/mol/M", "denaturant midpoint (higher = more stable)": "M", "unfolding free energy": "kcal/mol"}, "values": [{"variant": "QDWLTFQKKHITNTRDVDCDNILSTNLFHCKDKNTFIYSRPEPVKAICKGIIASKNVLTTSEFYLSDCNVTSRPCKYKLKKSTNKFCVTCENQAPVHFVGVGSC", "ddG of mutation (higher = less stable)": 3.06, "denaturant m value": 3.25, "denaturant midpoint (higher = more stable)": 3.4, "unfolding free energy": 11}]}, {"variants_of": "B1", "conditions": "Lithobates pipiens; pH 6; 25 °C; GdnHCl; Fluorescence; MES 100 mM; reversible: yes; structure 1ONC; whole UniProt chain shown", "units": {"ddG of mutation (higher = less stable)": "kcal/mol", "denaturant m value": "kcal/mol/M", "denaturant midpoint (higher = more stable)": "M", "unfolding free energy": "kcal/mol"}, "values": [{"variant": "QDWLTFQKKHITNTRDVDCDNILSTNLFHCKDKNTFIYSRPEPVKAICKGIIASKNVLTTSEFYLSDCNVTSRPCKYKLKKSTNKFCVTCENQAPVHFVGVGSC", "ddG of mutation (higher = less stable)": 2.63, "denaturant m value": 3.3, "denaturant midpoint (higher = more stable)": 3.4, "unfolding free energy": 11.2}]}, {"variants_of": "B1", "conditions": "Lithobates pipiens; pH 6; 25 °C; Thermal; DSC; MES 100 mM; reversible: yes; structure 1ONC; whole UniProt chain shown", "units": {"ddG of mutation (higher = less stable)": "kcal/mol", "unfolding free energy": "kcal/mol"}, "values": [{"variant": "QDWLTFQKKHITNTRDVDCDNILSTNLFHCKDKNTFIYSRPEPVKAICKGIIASKNVLTTSEFYLSDCNVTSRPCKYKLKKSTNKFCVTCENQAPVHFVGVGSC", "ddG of mutation (higher = less stable)": 2.65, "unfolding free energy": 11.5}]}, {"variants_of": "B1", "conditions": "Lithobates pipiens; pH 6; Thermal; DSC; MES 100 mM; reversible: yes; structure 1ONC; whole UniProt chain shown", "units": {"Tm": "°C", "change of melting temperature, mutant - wild type (higher = more stable)": "°C", "heat capacity change of unfolding": "kcal/mol/K", "unfolding enthalpy (calorimetric)": "kcal/mol", "unfolding enthalpy (van 't Hoff)": "kcal/mol"}, "values": [{"variant": "QDWLTFQKKHITNTRDVDCDNILSTNLFHCKDKNTFIYSRPEPVKAICKGIIASKNVLTTSEFYLSDCNVTSRPCKYKLKKSTNKFCVTCENQAPVHFVGVGSC", "Tm": 82.8, "change of melting temperature, mutant - wild type (higher = more stable)": -5.9, "heat capacity change of unfolding": 1.29, "unfolding enthalpy (calorimetric)": 115, "unfolding enthalpy (van 't Hoff)": 112}]}, {"variants_of": "B1", "conditions": "Lithobates pipiens; pH 7; 25 °C; Thermal; DSC; MES 100 mM; reversible: yes; structure 1ONC; whole UniProt chain shown", "units": {"ddG of mutation (higher = less stable)": "kcal/mol", "unfolding free energy": "kcal/mol"}, "values": [{"variant": "QDWLTFQKKHITNTRDVDCDNILSTNLFHCKDKNTFIYSRPEPVKAICKGIIASKNVLTTSEFYLSDCNVTSRPCKYKLKKSTNKFCVTCENQAPVHFVGVGSC", "ddG of mutation (higher = less stable)": 2.22, "unfolding free energy": 11.5}]}, {"variants_of": "B1", "conditions": "Lithobates pipiens; pH 7; Thermal; DSC; MES 100 mM; reversible: yes; structure 1ONC; whole UniProt chain shown", "units": {"Tm": "°C", "change of melting temperature, mutant - wild type (higher = more stable)": "°C", "heat capacity change of unfolding": "kcal/mol/K", "unfolding enthalpy (calorimetric)": "kcal/mol", "unfolding enthalpy (van 't Hoff)": "kcal/mol"}, "values": [{"variant": "QDWLTFQKKHITNTRDVDCDNILSTNLFHCKDKNTFIYSRPEPVKAICKGIIASKNVLTTSEFYLSDCNVTSRPCKYKLKKSTNKFCVTCENQAPVHFVGVGSC", "Tm": 82, "change of melting temperature, mutant - wild type (higher = more stable)": -5.8, "heat capacity change of unfolding": 1.46, "unfolding enthalpy (calorimetric)": 115, "unfolding enthalpy (van 't Hoff)": 118}]}, {"variants_of": "B1", "conditions": "Lithobates pipiens; pH 8; 25 °C; Thermal; DSC; MES 100 mM; reversible: yes; structure 1ONC; whole UniProt chain shown", "units": {"ddG of mutation (higher = less stable)": "kcal/mol", "unfolding free energy": "kcal/mol"}, "values": [{"variant": "QDWLTFQKKHITNTRDVDCDNILSTNLFHCKDKNTFIYSRPEPVKAICKGIIASKNVLTTSEFYLSDCNVTSRPCKYKLKKSTNKFCVTCENQAPVHFVGVGSC", "ddG of mutation (higher = less stable)": 2.39, "unfolding free energy": 10.6}]}, {"variants_of": "B1", "conditions": "Lithobates pipiens; pH 8; Thermal; DSC; MES 100 mM; reversible: yes; structure 1ONC; whole UniProt chain shown", "units": {"Tm": "°C", "change of melting temperature, mutant - wild type (higher = more stable)": "°C", "heat capacity change of unfolding": "kcal/mol/K", "unfolding enthalpy (calorimetric)": "kcal/mol", "unfolding enthalpy (van 't Hoff)": "kcal/mol"}, "values": [{"variant": "QDWLTFQKKHITNTRDVDCDNILSTNLFHCKDKNTFIYSRPEPVKAICKGIIASKNVLTTSEFYLSDCNVTSRPCKYKLKKSTNKFCVTCENQAPVHFVGVGSC", "Tm": 79.1, "change of melting temperature, mutant - wild type (higher = more stable)": -6.3, "heat capacity change of unfolding": 1.36, "unfolding enthalpy (calorimetric)": 110, "unfolding enthalpy (van 't Hoff)": 109}]}]}
